Source: patent US20260116965A1 (COHERENT BIOPHARMA SUZHOU, published 2026)

T1: Transient receptor potential cation channel subfamily V member 6 (TRPV6) protein (human, UniProt Q9H1D0 1-765)
T1 construct: Calcium channel; also called human TRPV6 protein
T1 sequence: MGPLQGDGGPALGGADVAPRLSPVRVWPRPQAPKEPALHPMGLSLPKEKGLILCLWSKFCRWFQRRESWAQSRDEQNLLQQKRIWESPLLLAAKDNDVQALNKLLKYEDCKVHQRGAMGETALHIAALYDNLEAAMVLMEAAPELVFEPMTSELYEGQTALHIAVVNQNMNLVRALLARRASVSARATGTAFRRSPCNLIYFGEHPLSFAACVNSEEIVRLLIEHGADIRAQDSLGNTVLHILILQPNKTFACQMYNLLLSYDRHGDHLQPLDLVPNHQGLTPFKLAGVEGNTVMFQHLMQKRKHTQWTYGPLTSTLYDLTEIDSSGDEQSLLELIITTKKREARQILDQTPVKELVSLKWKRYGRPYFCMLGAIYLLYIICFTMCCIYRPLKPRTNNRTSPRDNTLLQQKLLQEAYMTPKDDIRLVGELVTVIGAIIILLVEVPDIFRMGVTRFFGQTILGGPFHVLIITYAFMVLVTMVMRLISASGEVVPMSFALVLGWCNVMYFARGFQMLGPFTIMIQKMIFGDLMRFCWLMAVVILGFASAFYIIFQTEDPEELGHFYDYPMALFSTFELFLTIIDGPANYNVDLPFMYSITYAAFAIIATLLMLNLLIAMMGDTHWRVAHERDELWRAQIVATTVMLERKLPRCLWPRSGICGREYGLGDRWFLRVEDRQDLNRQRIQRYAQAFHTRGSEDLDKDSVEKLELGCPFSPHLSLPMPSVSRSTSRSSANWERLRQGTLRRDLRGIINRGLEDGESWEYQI


Molecular target: T1, Transient receptor potential cation …
Assay: IHC on tissue slices

binding result | Binder
binds | CB-Anti-0002 antibody (antibody, IgG1, V domains shown, also called antibody of hybridoma cell line 16CT 4.1.1.2; 16CT4.1.1.2) VH: EVKLEESGGGLVQPGGSMKLSCVASGFTFSYYWMNWVRQSPEKGLEWVAEIRLKSHNYATHYAESVKGRFTISRDDSKSSVYLQMNNLRSEDTGIYYCARLAYDGERYYYALDYWGQGTSVTVSS VL: DIVMSQSPSSLAVSVGEKFTMSCKSSQSLLYSNNQKNYLAWYQQKPGQSPKLLIYWASTRESGVPDRFTGSGYGTDFTLTISSVKAEDLAVYYCQQYYSYPFTFGSGTKLEIK
binds | CB-Anti-0001 antibody (antibody, IgG1, V domains shown, also called antibody of hybridoma cell line 12CT 9.5.1; 12CT9.5.1) VH: QVQVQQPGAELVKPGTSVKLSCKASGYTFTSYWMHWVKQRPGQGLEWIGEIDPSDGYTNYNQKFRGKATLSVDKSSTTAYMQLSSLTSEDSAVYYCGWAGDFWGQGTTLTVSS VL: not shown
